B1: rhGDF15: Recombinant human GDF15 (rhGDF15; R&D Systems; 957-GD-025), growth differentiation factor 15 protein (protein, listed as Homo sapiens)
chain: ARARNGDHCPLGPGRCCRLHTVRASLEDLGWADWVLSPREVQVTMCIGACPSQFRAANMHAQIKTSLHRLKPDTVPAPCCVPASYNPMVLIQKTDTGVSLQTYDDLLAKDCHCI

What was measured:
Kupffer cells = assay: GDF15 mRNA expression after palmitate treatment, Kupffer cells; type: cell-based; details: for increase in GDF15 mRNA expression: after 6 hours
Experimental: Primary hepatic cells were isolated and differentiated into hepatocytes, HSCs, Kupffer cells, and liver sinusoidal endothelial cells (LSECs). Kupffer cells are macrophages present in the liver, and are known to play an essential role in the initiation of inflammation. To distinguish Kupffer cells and LSECs, magnetic-activated cell sorting (MACS) was performed using the MiniMACS™ separator system (MiltenyiBiotec, Seoul, Korea). The purity of LSECs was evaluated by fluorescence-activated cell sorting using anti-PE antibody (purity of 90% or higher). Primary cells were cultured in 1.5 mL of a serum-free medium for 4 hours, and treated with 5(w/w)% of bovine serum albumin (BSA, control), 200 μM palmitate/5(w/w)% BSA solution, and 500 μM palmitate/5(w/w)% BSA, respectively. After 3 and 6 hours, cells were collected and further analyzed. Reverse-transcription polymerase chain reaction (RT-PCR) and real-time PCR were performed to assess the expression of GDF15 mRNA after palmitate treatment.

[1] = system: LX-2 cells (human hepatic stellate cells); assay: rhGDF15 treatment of LX-2 cells, fibrosis markers by immunoblotting and immunofluorescence; type: cell-based
Experimental: (§1) Recombinant human GDF15 (rhGDF15; R&D Systems; 957-GD-025) was added to LX-2 cells (human hepatic stellate cells, KAIST), cultured in the presence of 100 ng/mL GDF15 and 10 ng/mL TGF-β, and primary hepatocytes, directly isolated from the mouse liver, at […] per 3×10^5 cells/6 wells. The levels of fibrosis markers, such as alpha-smooth muscle actin (α-SMA) and collagen 1, were assessed by immunoblotting, immunohistochemistry, and immunofluorescence staining.

primary hepatocytes = assay: rhGDF15 treatment of primary hepatocytes, immunoblotting; type: cell-based, mouse; details: FIG. 4D
Experimental: as §1

Molecule	increase in GDF15 mRNA expression (Kupffer cells; 200 μM, P=0.009, FIG. 5B) [fold]	increase in GDF15 mRNA expression level (Kupffer cells; 500 μM, after 3 hours, P=0.004, FIG. 5A)	increase in GDF15 mRNA expression (Kupffer cells; 500 μM, P=0.032, FIG. 5B) [fold]	cell apoptosis ([1]; LX-2 cells, FIG. 4A)	expression of fibrosis markers α-SMA and collagen 1 ([1]; LX-2 cells, immunoblotting, FIG. 4A)	α-SMA expression, immunofluorescent staining ([1]; LX-2 cells, treatment for 12 hours, FIG. 4B)	acute stimulatory effect on hepatocytes ([1]; after 12 hours)	time to increase of α-SMA level after treatment ([1]; after GDF15 treatment) [h]	time to induction of SMAD phosphorylation after treatment ([1]; after GDF15 treatment) [h]	phosphorylation of SMAD2 and SMAD3 ([1]; printed as human hepatocytes, FIG. 4C (LX-2 cells))	phosphorylation of SMAD2 and SMAD3 (primary hepatocytes)
CCCCCCCCCCCCCCCC(=O)O [palmate, palmitate]	2.5	approximately 2 fold	1.5	–	–	–	–	–	–	–	–
B1	–	–	–	not influenced	increased	high expression	remarkably reduced	≤ 12	≤ 3	increasing	upregulating
